Columns and labels:
[1] = biological target: T1, yeast ENIP1 protein fragment (composed of amino acids 170-469) (S. cerevisiae, UniProt Q99207 170-469); test: yeast two-hybrid
T1 construct: Truncation construct used in the yeast two-hybrid system
T1 sequence: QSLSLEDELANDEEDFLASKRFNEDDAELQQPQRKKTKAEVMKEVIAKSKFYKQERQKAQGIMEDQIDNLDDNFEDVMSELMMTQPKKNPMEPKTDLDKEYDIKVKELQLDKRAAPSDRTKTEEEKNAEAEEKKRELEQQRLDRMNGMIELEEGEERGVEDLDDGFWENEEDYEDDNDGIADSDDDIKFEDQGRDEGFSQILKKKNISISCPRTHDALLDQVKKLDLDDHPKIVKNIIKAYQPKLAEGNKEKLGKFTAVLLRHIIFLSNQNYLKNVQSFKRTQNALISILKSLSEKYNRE

[2] = biological target: T2, yeast Emg1-Nuclear Interacting Protein 1 (ENIP1), S. cerevisiae gene locus YDL148c (S. cerevisiae, UniProt Q99207 1-810, limits assumed); test: yeast two-hybrid, cell growth assay on selective (no histidine) medium
T2 construct: 810 amino acids; also called yeast ENIP1; yENIP
T2 sequence: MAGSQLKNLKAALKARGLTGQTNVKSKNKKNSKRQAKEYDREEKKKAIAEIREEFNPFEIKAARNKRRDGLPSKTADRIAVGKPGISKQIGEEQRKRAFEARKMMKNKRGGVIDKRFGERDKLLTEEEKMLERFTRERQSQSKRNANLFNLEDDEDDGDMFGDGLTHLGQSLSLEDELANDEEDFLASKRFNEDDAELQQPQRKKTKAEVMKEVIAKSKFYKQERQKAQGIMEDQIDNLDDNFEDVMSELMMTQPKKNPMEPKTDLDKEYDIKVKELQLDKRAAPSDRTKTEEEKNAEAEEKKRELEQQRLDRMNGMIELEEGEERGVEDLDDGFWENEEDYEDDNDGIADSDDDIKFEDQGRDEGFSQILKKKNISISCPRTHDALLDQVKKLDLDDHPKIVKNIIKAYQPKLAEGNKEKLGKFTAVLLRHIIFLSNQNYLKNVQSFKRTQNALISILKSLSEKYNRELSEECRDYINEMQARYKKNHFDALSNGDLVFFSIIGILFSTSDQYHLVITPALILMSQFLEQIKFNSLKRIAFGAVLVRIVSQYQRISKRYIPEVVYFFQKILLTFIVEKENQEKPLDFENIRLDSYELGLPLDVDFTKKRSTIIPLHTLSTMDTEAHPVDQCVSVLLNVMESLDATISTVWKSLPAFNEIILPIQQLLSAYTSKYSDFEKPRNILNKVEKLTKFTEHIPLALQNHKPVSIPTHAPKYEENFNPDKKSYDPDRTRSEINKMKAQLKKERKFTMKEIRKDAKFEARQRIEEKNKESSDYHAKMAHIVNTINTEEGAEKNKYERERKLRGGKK

binding result [1]: binds
binding result [2]: binds
B1: mouse Emg1 protein (other)
chain: MSAASGGFQPRERRFSVQEQDWETTPPKKLRLGAGSKCGGRRLIVVLEGASLETVKVGKTYELLNCDRHKSMLLKNGRDPGEVRPDITHQSLLMLMDSPLNRAGLLQVYIHTQKNVLIEVNPQTRIPRTFDRFCGLMVQLLHKLSVRAADGPQKLLKVIKNPVSDHFPVGCMKIGTSFSVEDISDIRELVPSSDPVVFVVGAFAHGKVSVEYTEKMVSISNYPLSAALTCAKVTTAFEEVWGVI
notes: Used as a two-hybrid fusion; also called mEmg1; murine Emg1

From patent US6383753 (REGENTS OF THE UNIVERSITY OF MICHIGAN, dated 2002)
